Patent US20140294817A1

Tests used:
Fcγ-receptor I (mice) = Fcγ-receptor I (mice) (UniProt P26151); experiment: flow cytometry saturation binding on HeLa cells expressing RFP-tagged FcγRI (FIG. 61A, right panel)
Fcγ-receptor IV (mice) = experiment: flow cytometry saturation binding on HeLa cells expressing RFP-tagged FcγRIV (FIG. 61D, right panel)
Fcγ-receptor III (mice) = Fcγ-receptor III (mice) (UniProt P08508); experiment: flow cytometry saturation binding on HeLa cells expressing RFP-tagged FcγRIII (FIG. 61C, right panel)
Chain of Fcγ-receptor III (mice) (P08508 31-261): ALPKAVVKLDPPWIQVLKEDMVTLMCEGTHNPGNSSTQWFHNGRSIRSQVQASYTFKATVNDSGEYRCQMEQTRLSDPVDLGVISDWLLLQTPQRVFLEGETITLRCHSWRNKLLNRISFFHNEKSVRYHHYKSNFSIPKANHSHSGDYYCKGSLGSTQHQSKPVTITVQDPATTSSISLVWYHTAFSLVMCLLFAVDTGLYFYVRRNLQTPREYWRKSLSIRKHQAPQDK

Fcγ-receptor IIb (mice) = Fcγ-receptor IIb (mice) (UniProt P08101); experiment: flow cytometry saturation binding on HeLa cells expressing RFP-tagged FcγRIIb (FIG. 61B, right panel)
Chain of Fcγ-receptor IIb (mice) (P08101 30-330): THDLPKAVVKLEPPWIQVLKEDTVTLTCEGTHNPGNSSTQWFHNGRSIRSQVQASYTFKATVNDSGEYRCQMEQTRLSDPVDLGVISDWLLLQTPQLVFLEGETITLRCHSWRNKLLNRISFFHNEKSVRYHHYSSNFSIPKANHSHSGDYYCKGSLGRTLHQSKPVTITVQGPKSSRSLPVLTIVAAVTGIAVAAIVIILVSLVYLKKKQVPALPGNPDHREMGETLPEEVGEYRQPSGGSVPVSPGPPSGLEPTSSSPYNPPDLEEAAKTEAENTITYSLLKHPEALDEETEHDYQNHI

Chain of Fcγ-receptor I (mice) (P26151 25-404): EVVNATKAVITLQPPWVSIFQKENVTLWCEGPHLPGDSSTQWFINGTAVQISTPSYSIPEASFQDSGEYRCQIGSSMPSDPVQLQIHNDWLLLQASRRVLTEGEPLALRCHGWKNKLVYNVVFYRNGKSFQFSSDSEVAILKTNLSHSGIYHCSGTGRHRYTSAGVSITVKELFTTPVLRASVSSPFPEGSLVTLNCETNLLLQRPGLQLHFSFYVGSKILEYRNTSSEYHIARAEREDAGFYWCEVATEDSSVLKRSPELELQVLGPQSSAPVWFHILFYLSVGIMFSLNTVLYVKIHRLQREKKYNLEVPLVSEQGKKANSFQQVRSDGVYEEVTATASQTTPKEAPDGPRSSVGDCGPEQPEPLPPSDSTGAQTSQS
Chain of Fcγ-receptor IV (mice) (A0A0B4J1G0 21-249): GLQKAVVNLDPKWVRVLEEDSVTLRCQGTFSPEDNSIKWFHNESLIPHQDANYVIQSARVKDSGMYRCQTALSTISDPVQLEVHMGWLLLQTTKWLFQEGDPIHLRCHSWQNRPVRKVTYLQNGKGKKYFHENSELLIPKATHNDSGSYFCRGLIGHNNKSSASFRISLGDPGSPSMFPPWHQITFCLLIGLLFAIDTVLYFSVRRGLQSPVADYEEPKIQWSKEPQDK

whole rabbit IgG (antibody)
Kd (Fcγ-receptor I (mice)): 201 nM
Kd (Fcγ-receptor IV (mice)): 1220 nM
Kd (Fcγ-receptor III (mice)): 2330 nM
Kd (Fcγ-receptor IIb (mice)): 609 nM
